# Measurements reported in article doi:10.1101/776187.
# What was measured:
# [1] = biological target: dynactin (bovine (purified from bovine brain))
# [2] = biological target: human cytoplasmic dynein (recombinant complex of DHC, DIC, DLIC, Tctex, Robl and LC8) (human) (UniProt Q14204)
substance,measurement,setting,value
Drosophila BicD-coiled-coil domain 1 (truncated N-terminal fragment of Dm BicD) (domain or fragment),"processive run length of DDB^CC1 on microtubules, single molecule TIRF",[1],2.8 µm
same,"speed of DDB^CC1 on microtubules, single molecule TIRF",[1],0.41 µm/s
same,"processive run length of DDB^CC1 on microtubules, single molecule TIRF",[2],2.8 µm
same,"speed of DDB^CC1 on microtubules, single molecule TIRF",[2],0.41 µm/s
